The values below come from publication PMC11649929.

The assay has as its target 5*MYC-HSD17B13 (Mouse) (UniProt Q8VCR2). The assay is described as follows: co-immunoprecipitation (IP: MYC) and Western blotting, band intensity. The following applies: HEK293T cells transfected with EGFP-Rab2A plasmids and MYC-HSD17B13; parent: 3.3. (In general: In western blotting, separated proteins are transferred to a membrane and probed.)
Chain of UniProt Q8VCR2 (Q8VCR2 whole entry): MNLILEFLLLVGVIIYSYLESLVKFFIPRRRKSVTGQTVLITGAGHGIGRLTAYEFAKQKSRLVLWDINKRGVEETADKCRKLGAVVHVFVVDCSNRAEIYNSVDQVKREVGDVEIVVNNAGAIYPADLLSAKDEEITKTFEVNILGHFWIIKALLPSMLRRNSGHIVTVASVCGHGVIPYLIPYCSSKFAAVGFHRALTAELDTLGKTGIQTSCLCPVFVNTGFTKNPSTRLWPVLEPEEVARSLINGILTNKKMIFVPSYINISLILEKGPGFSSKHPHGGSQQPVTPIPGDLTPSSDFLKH

Take “Rab2A, wild type, expressed from a plasmid in HEK293T cells (tag not told) (from UniProt P53994) Q32...E42-A...A”: the response is 0.9.
